Measurements published in the DeepSol protein solubility set.

Experiment: soluble on expression in E. coli; label from the status in PepcDB or PDB records

Row | Sequence | soluble on expression in E. coli
1 | MSLRRILITGANGFVGQILCSMLRQAGHHVIALVGAESALSSHADESVRCDIRDASGLEQALCRAAPTHVVHLAAITHVPTSFNNPVLTWQTNVMGSVNLLQALQRSAPEAFVLFVSSSEVYGETFKQGTALGEDSACKPMNPYAASKLAAEAAFNEYFRQGRKGIVVRPFNHIGARQSPDFATASFARQIALIEAGKQAPQLKVGNLQAARDFLDVHDVCDAYVALLQLADEQERYPGCLNICRGEPTSLQTLLTQLMALSSSVIEVTIDPDRMRPSDIPSAFGNNSAMRCATGWKPKTKLDDTLEALLNYWRHEVISAEGHHHHHH | soluble
2 | MTDQVFGKVSKVVCVGAGYVGGPTCAMIAHKCPHITVTVVDMNTAKIAEWNSDKLPIYEPGLDEIVFAARGRNLFFSSDIPKAIAEADLIFISVNTPTKMYGRGKGMAPDLKYVESVSRTIAQYAGGPKIVVEKSTVPVKAAESIGCILREAQKNNENLKFQVLSNPEFLAEGTAMKDLANPDRVLIGGESSPEGLQAVAELVRIYENWVPRNRIITTNTWSSELSKLVANAFLAQRISSINSISAVCEATGAEISEVAHAVGYDTRIGSKFLQASVGFGGSCFQKDVLSLVYLCESLNLPQVADYWQGVININNWQRRRFADKIIAELFNTVTDKKIAIFGFAFKKNTGDTRESSAIHVIKHLMEEHAKLSVYDPKVQKSQMLNDLASVTSAQDVERLITVESDPYAAARGAHAIVVLTEWDEFVELNYSQIHNDMQHPAAIFDGRLILDQKALREIGFRTFAIGTSPDQAYNLFGTAGY | soluble
3 | KRLQKKIDNGELDSFPEVKEVDVECCGQHEVCERDSLLAAVSKQIEYYDDEELDTFIGRAPEDYTPEEADKFRDVFYTMQDTDVAGWVRSLQLRGISLPDEIKDEVFLVVGERRIH | not soluble
4 | MGHHHHHHSHKKLGLKVGIEIHQQLDTKHKLFCLCPTLTREVEESNFEFFRYLRLKRSEIGEEDRAAKEEVERSRRFIYKYYDTTCLVEADEEPPREVNREALLIAIQVAKMLNMEVVDEVHVMRKIVIDGSNTTGFQRTALVAFGGFLEVDGKRVGVATLCLEEEACRKVEDGEGYAVYSLDRLGIPLVEIGTEPDIDSPEMAKKVAARLGMILRSTGKVKRGLGTIRQDVNISIRDGARVEIKGVQELDILDKIVEYEVLRQVNLLKIR | soluble
5 | MSLNPRIDYLKSLSTLAAEIYPDIRGVKKLRYNARFCLWGILMPDTLARIQDLLNQPSFHPVRQHYPRTLEKPLKPYVCVKWPPQERAQRLIEHFAFLEKRHAQLLPLIYRHQGWSLFQHELFSIQLCHGPEREGSLALVLLSQDHQPLFTLAFNISGRNKPVIHIGALQGPGPNVENRQEIIRQLTHQLHGLRPKALIMEVLLILARYWCVEKVYGVTNEGHVYQALRYIGSKRSSVRFQYSELWQEMGGEAINPYWHSLPTHPPRKAPLSLSKTKRRLYTKRYAWLTELEQSIQANLQPWDNEIHHEGHHHHHH | soluble
6 | MPSENSRPMPSFPRRRESRPWDNGNIQRLSESPRFWIPTFVGMTGCRFVGMTWCRFPYGWIRHSRAGGNLERKI | not soluble
7 | MGSDKIHHHHHHMMKKIEEARTFISERTNLSPDILIILGSGFGPFIEKVEDPVIIDYKDIPHFPQPTVEGHSGKLVFGRISDKPVMIMAGRFHLYEGHDPATVAFPVYLAKYVGVKGVVVTNAAGAINPEFKPGEIILVRDIINFMFRNPLRGPNDEKIGPRFPDMSSVVDPEWARKIQERLSLKEGVYIGVLGPSYETPAEIRVFEKLGADLVGMSTVPEVIAAKHCGLKVVVFSCVTNMAAGITHGRLSHEEVVRTTKMAQGKIEKALTTAVEVF | soluble
8 | MGSDKIHHHHHHMKCSQCNKKLCYTGKDCKKDITQKIIEEYKKEENLKIAEVSAYIEATYYMKKTRLEEIIEFCKLMEYKKIGIAFCIGLENEAKILAKILSKHFEVYSVCCKVCGIDKDVFKFKKINKGEKEAMCNPIGQAEILNEIGTDLNIIVGLCIGHDILFQKYSKAPTTTFIVKDRVLSHNTAGAIYTKYYLKKLLEGK | not soluble
9 | MSQLLQDYLNWENYILRRVDFPTSYVVEGEVVRIEAMPRLYISGMGGSGVVADLIRDFSLTWNWEVEVIAVKDYFLKARDGLLIAVSYSGNTIETLYTVEYAKRRRIPAVAITTGGRLAQMGVPTVIVPKASAPRAALPQLLTAALHVVAKVYGIDVKIPEGLEPPNEALIHKLVEEFQKRPTIIAAESMRGVAYRVKNEFNENAKIEPSVEILPEAHHNWIEGSERAVVALTSPHIPKEHQERVKATVEIVGGSIYAVEMHPKGVLSFLRDVGIASVKLAEIRGVNPLATPRIDALKRRLQ | soluble
10 | MNEQPNNENITQSASRDLQIIEDDAFSYEGYQVVRGEFFAHTYEPSFTFNANKVSVNTACIKKLPQTDFVQILVNPDEKKLAVRPCQEDEKDSFRWCSATKKRSPRQITCRIFFAKVISLMEWNPSYRYKLLGKLIRSDNELLFVFDLTTPEIYVRAEKEDGKIKTSRTPTYPAEWQNQFGVPVEEHQSNLQINMFDGYAVFGISENTQPSEEAQNTSVPPKEETHYEQSTLFPADPMHLEHHHHHH | soluble
11 | MQNPQNLIWIDLEMTGLDPDRDVIIEMATIVTDSDLNTLAEGPVIAIHQPEEILAGMDEWNTRQHGQSGLTQRVRESTVSMAEAEAQTLAFLEQWVPKRSSPICGNSICQDRRFLYRHMPRLEGYFHYRNLDVSTLKELAARWAPQVRESFKKGNTHLALDDIRESIAELRHYRDHFIKL | not soluble
12 | MGGEDDELKGLLGLPEEETELDNLTEFNTAHNKRISTLTIEEGNLDIQRPKRKRKNSRVTFSEDDEIINPEDVDPSVGRFRNMVQTAVVPVKKKRVEGPGSLGLEESGSRRMQNFAFSGGLYGGLPPTHSEAGSQPHGIHGTALIGGLPMPYPNLAPDVDLTPVVPSAVNMNPAPNPAVYNPEAVNEPKKKKYAKEAWPGKKPTPSLLI | soluble
13 | SFSWLLRLCQKENGDEGDTRPTKKEEGILSHEKGRRKSFWRRHRSARNTSTQNSNITNQISNINKVRELKLDMRKISNDMEEMCGILNLYMYEDLNYRMNTEFNIIKSQHEKTMLDMDKMTQSIIASMKFSEELLKDNYSYSIKQKRGSVRRPARTCVSQVPRSSRCDHEIPQISDPDGSLHSSWDLGSIVSSEPD | soluble
14 | MTESFAELFEASQANLAKLKPGSIVTGTVVEVRGDVVVINAGLKSEGIVPIEQFRNDAGEIDVGVGDQVKVALDSIENGFGETVLSREKAKRAMVWDELEEALEKNETITGRISGKVKGGFTVDIKDVRAFLPGSLVDVRPVRDPAYLEGKELEFKLIKLDRKRNNVVVSRRAVVESEHSEEREQLMDKLQEGAILKGVVKNLTDYGAFVDLGGIDGLLHITDMAWKRVRHPSEVVNVGDELDVRVLKFDRERNRVSLGLKQLGEDPWDNIARRYPANSRVFGKVSNVTDYGAFVEIEPGVEGLVHVSEMDWTNKNVNPSKVVQVGDEVEVMVLDVDEERRRISLGMKQVAANPWETFAATHKKNDKVSGQIKSITDFGIFIGLDGGIDGLVHLSDISWNTTGEDVVRNYKKGDTLEAVVLAVDPERERISLGVKQLEQDPFGQYMASNPKGSKVEGVVREVDAKGATIDLADGIEGYVAARDIANERVDDATQHLKVGDKIEAKFVGMDRKGRTLQLSIKAKDDAEMREVLEEYQSASGGTTQLGALLRAQLNSNKSELEHHHHHH | soluble
15 | MDPRGILKAFPKRQKIHADASSKVLAKIPRREEGEEAEEWLSSLRAHVVRTGIGRARAELFEKQIVQHGGQLCPAQGPGVTHIVVDEGMDYERALRLLRLPQLPPGAQLVKSAWLSLCLQERRLVDVAGFSIFIPSRYLDHPQPSKAEQDASIPPGTHEALLQTALSPPPPPTRPVSPPQKAKEAPNTQAQPISDDEASDGEETQVSAADLEALISGHYPTSLEGDCEPSPAPAVLDKWVCAQPSSQKATNHNLHITEKLEVLAKAYSVQGDKWRALGYAKAINALKSFHKPVTSYQEACSIPGIGKRMAEKIIEILESGHLRKLDHISESVPVLELFSNIWGAGTKTAQMWYQQGFRSLEDIRSQASLTTQQAIGLKHYSDFLERMPREEATEIEQTVQKAAQAFNSGLLCVACGSYRRGKATCGDVDVLITHPDGRSHRGIFSRLLDSLRQEGFLTDDLVSQEENGQQQKYLGVCRLPGPGRRHRRLDIIVVPYSEFACALLYFTGSAHFNRSMRALAKTKGMSLSEHALSTAVVRNTHGCKVGPGRVLPTPTEKDVFRLLGLPYREPAERDW | soluble
16 | MKIIARDRGTGKTTELVKESARTGQYILASNKSHVRAIEQIAKKAGVTIPYPVTVDEIVSMDRFTCASSIQRDGLLVDEAIMVLSKLIGLKITGATISLEGEQQC | not soluble
17 | MHPTAAALIRTLGLAPHPEGGHYRRVYASTRQVLDDSGAPPRPALTAIRFLLCAGEASRWHRVDAEECWHWQQGAPLELLIFDEASGQLRREVLDAAERGDAMHVVPAGCWQAARSLGDFTLVGCTVSPGFVWEGFALLEDGSPLAAQLAALVAEGAAPEPPTLPLEHHHHHH | not soluble
18 | MGSDKIHHHHHHMEIKCIITDDEPIARKGLRRHIGKIDFLTIVGECEDAIQLNNMLNSVQADLLFLDIEMPDMSGLDFLESAQNAPKVIITSAYERYALRGYEFDVVDYLLKPISFSRFLKSVNKAHALMESTSKSEEPAYIFVKTEKQLKRLYLKEIQFIEGMENYIVIHTLTSKEIVHLRLKSIQETLPAQIFMQVHRSFIVNLSYVQAIEGNLLIIGEHKIPVSRPLREEVYKSIVNNQLIQR | not soluble
19 | MGSDKIHHHHHHMSHKFKFLTLPHRSGEVANVFIHGYSAGHDMEDRCALRKCIPSSLHNCINIFAFWPSGHWAKFDDWSSKSILAAGRLSFLAGAGLAVADRAFHFNTSRKRATAMGKTLLSQLETYLLKHHPYVSKVNLVGHSLGGRVVIHALLDLQGKPADDSLVIGDVLLMAAASTLSGDEAKTIGERINGKLYNAWSSDDKVLLFNLGENSAGRQEIDHCQNVPMHGFGHTDYWPRLDRVLRASGFHGYRGGLPSAIQPELVIKNPDPVVADHLLYDLLELTSDGIRSQVVKHLRSSSWTKLETEHPLYLLTKEFQLLGGHCLVNLARGKGLKYVQILLMLAEHYGLVSELHDCAQVIEMEALLISKCFQSSFGEEHVLASMQDIVLQIHGLSEKEYFEQVDALAASLTVTSYISTPETPAPVYRKTGSAQTGDSKELVLASGSFLTSFSTLMPTERMKAAVINLKSAVKPGYSALIPAVAAVFYARLKLNNEGLL | not soluble
20 | MKGLENAIRNLNSLDRQMVPRASIWAVNRVAQKAVSVATRKVARETVAGDNQVRGLPLKLVRQRVRLFKAGTDGKRSARIRINRGNLPAIKLGAAQVRMSKRRGKLLYRGSVLKIGPYLFRDAFIQQLANGRWHVMRRVNGKNRYPIDVVKIPLSGPLTQAFESATQSLIDEEIPKQLGYALKQQLRLYLSR | not soluble
21 | MSLKRADLSIVPLTFKHPIVTAHAVLSVRRTLILRLETVDGVVGYGEGAAFETPWYTEETTQSMIDTSKLILNLLKGMTVTTDVFPNLVSSIIGQRMAKAMWESALWEIEATRANKSLKSFISAGDSVSCGRTIGIGLLNQTMKSIETALADGFERIKLKASPNELLPALREIRAVFPDAPLMIDLNGSASDQPMEWFEQLDTYRLLMIEQPYPSRQFTKSAALQAKLTTPICLDESITSYDDVETMAQLGAGKIVNIKPARVGGLSEAFHIRKHGTPYWVGGMYESGIGRYHTLLFASLSGASFPADMSGTSAYFEQDLLDIPLEVENGKLTLPDSVQPDWNVIERLREEVITLQTEGHHHHHH | soluble
22 | MIEWQLAELIPHAGDMILIDQVLDFDEEQINTRLTVRADGLFNQPDGSLPAWLGIELMAQSVAAYAGCQARSKGEAVKLGFLLGSRKFDCNVARFPAGSELHIHAIRSLQDDSGMGVFECTLTGPDITALARLNVYCPPNTADYLAEGAPALEHHHHHH | not soluble
